Assay results taken from the supplement of paper PMC5998384.

Experiments:
HeLa Kyoto [1] = assay: solubility in G1/S (NP-40 vs SDS abundance) (log2 ratio); higher = more soluble; conditions: cell cycle stage: G1/S
HeLa Kyoto [2] = assay: melting temperature (median over replicates), in situ; higher = more thermally stable
HeLa Kyoto [3] = assay: solubility change mitosis vs G1/S (difference of NP-40 vs SDS log2 ratios) (log2 ratio difference); higher = more soluble in mitosis
HeLa Kyoto [4] = assay: thermal stability score vs G1/S (z-score of summed log2 fold changes over temperatures); higher = more thermally stable than in G1/S
[5] = cell cycle stage: early G1 (4.5 h after nocodazole release)
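For melting temperature (median over replicates), in situ in this document: HeLa Kyoto cells synchronized by double thymidine or nocodazole block, proteins quantified by TMT10plex mass spectrometry, three independent biological replicates.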
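For solubility change mitosis vs G1/S (difference of NP-40 vs SDS log2 ratios) in this document: synchronized HeLa Kyoto cells (double thymidine block for G1/S, nocodazole release for mitosis), protein amounts in NP-40 versus SDS lysates quantified by mass spectrometry, three biological replicates.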
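For solubility in G1/S (NP-40 vs SDS abundance) in this document: HeLa Kyoto cells arrested at G1/S by double thymidine block, proteins quantified by TMT10plex mass spectrometry in mild NP-40 versus SDS extracts, three biological replicates.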
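For thermal stability score vs G1/S (z-score of summed log2 fold changes over temperatures) in this document: synchronized HeLa Kyoto cells, proteins quantified by TMT10plex mass spectrometry, three biological replicates, mitosis taken 0.5 h after nocodazole release, G1/S directly after double thymidine block.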

Sequence of CKB (chain, as listed by the source): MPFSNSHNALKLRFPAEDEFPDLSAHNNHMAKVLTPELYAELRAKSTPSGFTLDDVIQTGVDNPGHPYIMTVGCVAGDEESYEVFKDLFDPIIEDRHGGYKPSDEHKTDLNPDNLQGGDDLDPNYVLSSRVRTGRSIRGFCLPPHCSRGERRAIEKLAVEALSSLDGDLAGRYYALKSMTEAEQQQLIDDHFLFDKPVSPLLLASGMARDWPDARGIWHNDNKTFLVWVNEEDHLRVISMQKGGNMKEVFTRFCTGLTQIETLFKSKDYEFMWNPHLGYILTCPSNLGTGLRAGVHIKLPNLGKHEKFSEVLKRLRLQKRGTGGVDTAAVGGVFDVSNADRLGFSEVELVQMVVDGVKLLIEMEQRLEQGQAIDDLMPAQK
Sequence of MCTP2 (chain, as listed by the source): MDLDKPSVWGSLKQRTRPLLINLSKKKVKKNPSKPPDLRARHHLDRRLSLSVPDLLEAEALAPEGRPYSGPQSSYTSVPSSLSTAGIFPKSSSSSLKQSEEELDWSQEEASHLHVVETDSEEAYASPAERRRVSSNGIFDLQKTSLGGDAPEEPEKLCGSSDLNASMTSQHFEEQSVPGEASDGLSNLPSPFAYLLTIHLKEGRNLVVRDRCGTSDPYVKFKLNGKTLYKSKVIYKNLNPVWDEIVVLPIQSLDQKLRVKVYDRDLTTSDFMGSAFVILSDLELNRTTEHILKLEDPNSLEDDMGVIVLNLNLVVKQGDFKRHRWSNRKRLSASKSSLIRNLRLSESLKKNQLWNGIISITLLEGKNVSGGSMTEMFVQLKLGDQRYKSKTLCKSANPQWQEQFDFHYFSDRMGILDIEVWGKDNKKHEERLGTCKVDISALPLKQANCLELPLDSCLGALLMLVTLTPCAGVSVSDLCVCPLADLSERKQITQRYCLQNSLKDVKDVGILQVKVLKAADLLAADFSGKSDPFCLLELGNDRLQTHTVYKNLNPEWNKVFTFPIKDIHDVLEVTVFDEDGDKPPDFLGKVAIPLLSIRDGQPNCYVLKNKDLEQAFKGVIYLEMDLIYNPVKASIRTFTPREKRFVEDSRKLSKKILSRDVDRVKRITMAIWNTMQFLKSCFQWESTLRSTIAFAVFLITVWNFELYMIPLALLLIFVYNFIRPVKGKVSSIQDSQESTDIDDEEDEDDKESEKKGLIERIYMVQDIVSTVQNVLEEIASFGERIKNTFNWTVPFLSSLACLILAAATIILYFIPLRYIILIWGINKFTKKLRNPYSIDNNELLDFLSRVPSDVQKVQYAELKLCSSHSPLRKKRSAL

| Substance | solubility in G1/S (log2) (HeLa Kyoto [1]) | melting temperature (HeLa Kyoto [2]; cell cycle stage: G1/S) | melting temperature (HeLa Kyoto [2]; cell cycle stage: mitosis) | solubility change mitosis (log2) (HeLa Kyoto [3]) | thermal stability score (HeLa Kyoto [4]; [5]) | thermal stability score (HeLa Kyoto [4]; cell cycle stage: mitosis) |
| --- | --- | --- | --- | --- | --- | --- |
| MSATSVDQRPKGQGNKVSVQNGSIHQKDAVNDDDFEPYLSSQTNQSNSYPPMSDPYMPSYYAPSIGFPYSLGEAAWSTAGDQPMPYLTTYGQMSNGEHHYIPDGVFSQPGALGNTPPFLGQHGFNFFPGNADFSTWGTSGSQGQSTQSSAYSSSYGYPPSSLGRAITDGQAGFGNDTLSKVPGISSIEQGMTGLKIGGDLTAAVTKTVGTALSSSGMTSIATNSVPPVSSAAPKPTSWAAIARKPAKPQPKLKPKGNVGIGGSAVPPPPIKHNMNIGTWDEKGSVVKAPPTQPVLPPQTIIQQPQPLIQPPPLVQSQLPQQQPQPPQPQQQQGPQPQAQPHQVQPQQQQLQNRWVAPRNRGAGFNQNNGAGSENFGLGVVPVSASPSSVEVHPVLEKLKAINNYNPKDFDWNLKNGRVFIIKSYSEDDIHRSIKYSIWCSTEHGNKRLDAAYRSLNGKGPLYLLFSVNGSGHFCGVAEMKSVVDYNAYAGVWSQDKWKGKFEVKWIFVKDVPNNQLRHIRLENNDNKPVTNSRDTQEVPLEKAKQVLKIIATFKHTTSIFDDFAHYEKRQEEEEAMRRERNRNKQ [YTHDF3] | 0.098 | 52.4 °C | 51.6 °C | -0.0838 | -0.535 | -3.39 |
| MCTP2 | -0.274 | 50.2 °C | 50.1 °C | -0.136 | 0.55 | 0.479 |
| MPLLGLLPRRAWASLLSQLLRPPCASCTGAVRCQSQVAEAVLTSQLKAHQEKPNFIIKTPKGTRDLSPQHMVVREKILDLVISCFKRHGAKGMDTPAFELKETLTEKYGEDSGLMYDLKDQGGELLSLRYDLTVPFARYLAMNKVKKMKRYHVGKVWRRESPTIVQGRYREFCQCDFDIAGQFDPMIPDAECLKIMCEILSGLQLGDFLIKVNDRRIVDGMFAVCGVPESKFRAICSSIDKLDKMAWKDVRHEMVVKKGLAPEVADRIGDYVQCHGGVSLVEQMFQDPRLSQNKQALEGLGDLKLLFEYLTLFGIADKISFDLSLARGLDYYTGVIYEAVLLQTPTQAGEEPLNVGSVAAGGRYDGLVGMFDPKGHKVPCVGLSIGVERIFYIVEQRMKTKGEKVRTTETQVFVATPQKNFLQERLKLIAELWDSGIKAEMLYKNNPKLLTQLHYCESTGIPLVVIIGEQELKEGVIKIRSVASREEVAIKRENFVAEIQKRLSES [HARS2] | 0.0324 | 53.6 °C | 53.3 °C | -0.0551 | 2.43 | 1.63 |
| MFRRPVLQVLRQFVRHESETTTSLVLERSLNRVHLLGRVGQDPVLRQVEGKNPVTIFSLATNEMWRSGDSEVYQLGDVSQKTTWHRISVFRPGLRDVAYQYVKKGSRIYLEGKIDYGEYMDKNNVRRQATTIIADNIIFLSDQTKEKE [SSBP1] | 0.0755 | 59.5 °C | 59.6 °C | 0.0149 | 0.62 | -1.51 |
| MRGPEPGPQPTMEGDVLDTLEALGYKGPLLEEQALTKAAEGGLSSPEFSELCIWLGSQIKSLCNLEESITSAGRDDLESFQLEISGFLKEMACPYSVLISGDIKDRLKKKEDCLKLLLFLSTELQASQILQNKKHKNSQLDKNSEVYQEVQAMFDTLGIPKSTTSDIPHMLNQVESKVKDILSKVQKNHVGKPLLKMDLNSEQAEQLERINDALSCEYECRRRMLMKRLDVTVQSFGWSDRAKVKTDDIARIYQPKRYALSPKTTITMAHLLAAREDLSKIIRTSSGTSREKTACAINKVLMGRVPDRGGRPNEIEPPPPEMPPWQKRQEGGGGRGGWGGGGGGGGRGGGGGGGGRGGWGGGGGGWGGGGGGGGGWGGGGGGGRGGFQGRGDYGGRGGYGGRGGYGGRGYGDPYGGGGGGGGGGGGGGGYRRY [FAM98B] | 0.558 | 50.3 °C | 51.5 °C | 0.0481 | -0.356 | 0.627 |
| MDCYTANWNPLGDSAFYRKYELYSMDWDLKEELRDCLVAAAPYGGPIALLRNPWRKEKAASVRPVLDIYSASGMPLASLLWKSGPVVSLGWSAEEELLCVQEDGAVLVYGLHGDFRRHFSMGNEVLQNRVLDARIFHTEFGSGVAILTGAHRFTLSANVGDLKLRRMPEVPGLQSAPSCWTVLCQDRVAHILLAVGPDLYLLDHAACSAVTPPGLAPGVSSFLQMAVSFTYRHLALFTDTGYIWMGTASLKEKLCEFNCNIRAPPKQMVWCSRPRSKERAVVVAWERRLMVVGDAPESIQFVLDEDSYLVPELDGVRIFSRSTHEFLHEVPAASEEIFKIASMAPGALLLEAQKEYEKESQKADEYLREIQELGQLTQAVQQCIEAAGHEHQPDMQKSLLRAASFGKCFLDRFPPDSFVHMCQDLRVLNAVRDYHIGIPLTYSQYKQLTIQVLLDRLVLRRLYPLAIQICEYLRLPEVQGVSRILAHWACYKVQQKDVSDEDVARAINQKLGDTPGVSYSDIAARAYGCGRTELAIKLLEYEPRSGEQVPLLLKMKRSKLALSKAIESGDTDLVFTVLLHLKNELNRGDFFMTLRNQPMALSLYRQFCKHQELETLKDLYNQDDNHQELGSFHIRASYAAEERIEGRVAALQTAADAFYKAKNEFAAKATEDQMRLLRLQRRLEDELGGQFLDLSLHDTVTTLILGGHNKRAEQLARDFRIPDKRLWWLKLTALADLEDWEELEKFSKSKKSPIGYLPFVEICMKQHNKYEAKKYASRVGPEQKVKALLLVGDVAQAADVAIEHRNEAELSLVLSHCTGATDGATADKIQRARAQAQKK [VPS16] | -0.206 | 49.9 °C | 50.1 °C | -0.12 | 0.278 | 0.681 |
| MAAPPEPGEPEERKSLKLLGFLDVENTPCARHSILYGSLGSVVAGFGHFLFTSRIRRSCDVGVGGFILVTLGCWFHCRYNYAKQRIQERIAREEIKKKILYEGTHLDPERKHNGSSSN [COX20] | 0.0379 | 55.3 °C | 58 °C | -0.0179 | -0.338 | -1.53 |
| MNGEADCPTDLEMAAPKGQDRWSQEDMLTLLECMKNNLPSNDSSKFKTTESHMDWEKVAFKDFSGDMCKLKWVEISNEVRKFRTLTELILDAQEHVKNPYKGKKLKKHPDFPKKPLTPYFRFFMEKRAKYAKLHPEMSNLDLTKILSKKYKELPEKKKMKYIQDFQREKQEFERNLARFREDHPDLIQNAKKSDIPEKPKTPQQLWYTHEKKVYLKVRPDATTKEVKDSLGKQWSQLSDKKRLKWIHKALEQRKEYEEIMRDYIQKHPELNISEEGITKSTLTKAERQLKDKFDGRPTKPPPNSYSLYCAELMANMKDVPSTERMVLCSQQWKLLSQKEKDAYHKKCDQKKKDYEVELLRFLESLPEEEQQRVLGEEKMLNINKKQATSPASKKPAQEGGKGGSEKPKRPVSAMFIFSEEKRRQLQEERPELSESELTRLLARMWNDLSEKKKAKYKAREAALKAQSERKPGGEREERGKLPESPKRAEEIWQQSVIGDYLARFKNDRVKALKAMEMTWNNMEKKEKLMWIKKAAEDQKRYERELSEMRAPPAATNSSKKMKFQGEPKKPPMNGYQKFSQELLSNGELNHLPLKERMVEIGSRWQRISQSQKEHYKKLAEEQQKQYKVHLDLWVKSLSPQDRAAYKEYISNKRKSMTKLRGPNPKSSRTTLQSKSESEEDDEEDEDDEDEDEEEEDDENGDSSEDGGDSSESSSEDESEDGDENEEDDEDEDDDEDDDEDEDNESEGSSSSSSSSGDSSDSDSN [UBTF] | -1.89 | 47.2 °C |  | 0.149 | 8.89 | 15.5 |
| MTGQGQSASGSSAWSTVFRHVRYENLIAGVSGGVLSNLALHPLDLVKIRFAVSDGLELRPKYNGILHCLTTIWKLDGLRGLYQGVTPNIWGAGLSWGLYFFFYNAIKSYKTEGRAERLEATEYLVSAAEAGAMTLCITNPLWVTKTRLMLQYDAVVNSPHRQYKGMFDTLVKIYKYEGVRGLYKGFVPGLFGTSHGALQFMAYELLKLKYNQHINRLPEAQLSTVEYISVAALSKIFAVAATYPYQVVRARLQDQHMFYSGVIDVITKTWRKEGVGGFYKGIAPNLIRVTPACCITFVVYENVSHFLLDLREKRK [SLC25A32] | -0.199 | 56.8 °C | 56.7 °C | -0.12 | -0.577 | 0.155 |
| CKB | 0.651 | 51 °C | 51.3 °C | -0.115 | 1.63 | 2 |
| MAAPMLRWGCRGRRWAFARVDGGSCHRRGAPTGSTSNQIRGESSVAQQPLHTAQKTRKGEHKWAAVVGLEIHAQISSNSKLFSGSQVRFSAPPNSLVSFFDASLPGTLPVLNRRCVEAAVMTGLALNCHINKKSLFDRKHYFYADLPAGYQITQQRLPIAVNGSLIYGVCAGKKQSQVIPKTVRIKQIQLEQDSGKSLHDNLRSQTLIDLNRAGVGLLEVVLEPDMSCGEEAATAVRELQLILQALGTSQANMAEGQLRVDANISVHHPGEPLGVRTEVKNLNSIRFLAKAIDYEIQRQINELENGGEILNETRSFHHKLGCTMSMRDKEGKQDYRFMPEPNLPPLVLYDATSLPAGADPQQVINIDQIRETLPELPSVTREKLVQQYGMLLEHSFTLLNEVGLLEFFQNVIKETRAEPKKVTSWVLNTFLGYLKQQNLAVSESPVTPSALAELLDLLDSRTISSSAAKQVFEELWKREGKTPGQIVSEKQLELMQDQGALEQLCHSVMEAHPQVVMDVKNRNPRAINKLIGLVRKATQSRADPVMIKEILEKKLSL [GATB] | 0.473 | 48.3 °C | 48.7 °C | -0.154 | -0.148 | 0.829 |
| MWRLPGARAALRVIRTAVEKLSRAEAGSQTAAGAMERAVVRCVPSEPKLSLSFALADGSHKNMQRDQSEPLGRVLSRIATNALKGHAKAAAAKKSRKSRPNASGGAACSGPGPEPAVFCEPVVKLYYREEAVAEDVLNVDAWQDGAVLQIGDVKYKVERNPPAFTELQLPRYIMAGFPVCPKLSLEFGDPASSLFRWYKEAKPGAAEPEVGVPSSLSPSSPSSSWTETDVEERVYTPSNADIGLRLKLHCTPGDGQRFGHSRELESVCVVEAGPGTCTFDHRHLYTKKVTEDALIRTVSYNILADTYAQTEFSRTVLYPYCAPYALELDYRQNLIQKELTGYNADVICLQEVDRAVFSDSLVPALEAFGLEGVFRIKQHEGLATFYRKSKFSLLSQHDISFYEALESDPLHKELLEKLVLYPSAQEKVLQRSSVLQVSVLQSTKDSSKRICVANTHLYWHPKGGYIRLIQMAVALAHIRHVSCDLYPGIPVIFCGDFNSTPSTGMYHFVINGSIPEDHEDWASNGEEERCNMSLTHFFKLKSACGEPAYTNYVGGFHGCLDYIFIDLNALEVEQVIPLPSHEEVTTHQALPSVSHPSDHIALVCDLKWK [PDE12] | 0.0541 | 52.1 °C | 52.3 °C | -0.171 | -1.65 | -1.58 |
| MEAQAQGLLETEPLQGTDEDAVASADFSSMLSEEEKEELKAELVQLEDEITTLRQVLSAKERHLVEIKQKLGMNLMNELKQNFSKSWHDMQTTTAYKKTHETLSHAGQKATAAFSNVGTAISKKFGDMSYSIRHSISMPAMRNSPTFKSFEERVETTVTSLKTKVGGTNPNGGSFEEVLSSTAHASAQSLAGGSRRTKEEELQC [TPD52L1] | 0.458 | 54.4 °C | 53.6 °C | 0.111 | -3.64 | -3.95 |
| MAALRVLLSCVRGPLRPPVRCPAWRPFASGANFEYIIAEKRGKNNTVGLIQLNRPKALNALCDGLIDELNQALKTFEEDPAVGAIVLTGGDKAFAAGADIKEMQNLSFQDCYSSKFLKHWDHLTQVKKPVIAAVNGYAFGGGCELAMMCDIIYAGEKAQFAQPEILIGTIPGAGGTQRLTRAVGKSLAMEMVLTGDRISAQDAKQAGLVSKICPVETLVEEAIQCAEKIASNSKIVVAMAKESVNAAFEMTLTEGSKLEKKLFYSTFATDDRKEGMTAFVEKRKANFKDQ [ECHS1] | 0.518 | 52.8 °C | 53.3 °C | 0.0593 | -1.11 | -1.89 |
